In test [1] the test system is cultured epithelia from proximal or distal trachea. Kind of test: rIL-13-induced mucous metaplasia in air-liquid interface cultured tracheal epithelia. The note with it: proximal vs distal tracheal epithelium ALI cultures, rIL-13 vs control, 72 hours. It counts as cell-based, mouse. As for the experimental part: Transwell cultures. Cells were cultured and expanded in complete SAGM (small airway epithelial cell growth medium; Lonza, CC-3118) containing TGF-β/BMP4/WNT antagonist cocktails and 5 μM Rock inhibitor Y-27632 (Selleckbio, S1049). To initiate air-liquid interface (ALI) cultures, airway basal stem cells were dissociated from mouse tracheas and seeded onto transwell membranes. After reaching confluence, media was removed from the upper chamber. Mucociliary differentiation was performed with PneumaCult-ALI Medium (StemCell, 05001). Differentiation of airway basal stem cells on an air-liquid interface was followed by directly visualizing beating cilia in real time after 10-14 days. […]
Statistical analysis of proximodistal mucous metaplasia. For the analysis in FIG. 38H,I, the extent of goblet cell hyperplasia was assessed using counts of Muc5ac^+ goblet cells, normalized to counts of GFP^+ ciliated cells. To quantify differences in the count values between the samples in different conditions (n=6, Foxj 1-GFP mice), Applicants fit a negative binomial regression using the ‘glm.nb’ function from the ‘MASS’ package in R. Pairwise comparisons between means for each condition were computed using post hoc tests and p-values were adjusted for multiple comparisons using Tukey's HSD, implemented using the function ‘pairs’ from the ‘emeans’ package in R.

Test [2] concerns small intestinal organoids. Kind of test: RANKL-mediated in-vitro differentiation of M cells in intestinal organoids (scRNA-seq). It counts as cell-based, mouse. The note with it: 5,434 cells from organoids treated with RANKL for 0, 3 and 6 days. As for the experimental part: Organoid cultures. Following crypt isolation from the whole small intestine^142, the single cell suspension was resuspended in Matrigel® (BD Bioscience) with 1 μM Jagged-1 peptide (Ana-Spec). Roughly 300 crypts embedded in 25 μl of Matrigel® were seeded onto each well of a 24-well plate. Once solidified, the Matrigel® was incubated in 600 μl culture medium (Advanced DMEM/F12, Invitrogen) with streptomycin/penicillin and glutamax and supplemented with EGF (100 ng/mL, Peprotech®), R-Spondin-1 (600 ng/mL, R&D), Noggin (100 ng/mL, Peprotech®), Y-276432 dihydrochloride monohydrate (10 μM, Tocris™)), N-acetyl-1-cysteine (1 μM, Sigma-Aldrich), N2 (1×, Life Technologies), B27 (1×, Life Technologies) and Wnt3A (25 ng/mL, R&D Systems). Fresh media was replaced on day 3, and organoids were passaged by dissociation with TrypLE and resuspended in new Matrigel® on day 6 with a 1:3 split ratio. For selected experiments, organoids were additionally treated with RANKL (100 ng/mL, Biolegends). For T helper cell co-culture experiments, organoids were cultured with Th1, Th2, Th17 or iTregs. Roughly 10,000 T helper cells were added to each well of 500 organoids and were supplemented either to the medium or suspended in the Matrigel®. Treated organoids were dissociated and subjected to scRNA-seq using both methods. […]

Where “and” joins values, the source holds several entries; their conditions need not be identical. Equal entries are not always repeated.

B1: rIL-13: recombinant murine IL-13 used to induce mucous metaplasia in cultured airway epithelium (protein, UniProt P20109 19-131, looked up)
Interleukin-13: APGPVPRSVSLPLTLKELIEELSNITQDQTPLCNGSMVWSVDLAAGGFCVALDSLTNISNCNAIYRTQRILHGLCNRKAPTTVSSLPDTKIEVAHFITKLLSYTKQLFRHGPF
In the case of B1, in test [1], the “induction of goblet cell differentiation (Muc5ac+ goblet cells normalized to GFP+ ciliated cells)” value is recorded as “much higher induction of goblet cell differentiation in the distal epithelium”.

B2: RANKL: cytokine added to small intestinal organoids as ex vivo model of M cell differentiation (protein, UniProt O35235 139-316, looked up)
Tumor necrosis factor ligand …: FSGAPAMMEGSWLDVAQRGKPEAQPFAHLTINAASIPSGSHKVTLSSWYHDRGWAKISNMTLSNGKLRVNQDGFYYLYANICFRHHETSGSVPTDYLQLMVYVVKTSIKIPSSHNLMKGGSTKNWSGNSEFHFYSINVGGFFKLRAGEEISIQVSNPSLLDPDQDATYFGAFKVQDID
Take B2: the “differentiated M cells identified by unsupervised clustering” value in test [2] is 384 cells and 378 cells.

For the origin of these results see patent US12590288B2, “Method of treating an inflammatory disease by administering an agent which binds a surface receptor on a tuft cell that induces an ILC class 2 inflammatory response” (The Broad Institute, Inc., priority 2017, dated 2026).
